# Data as given in patent US20240166765A1, “INFLAMMATORY DISEASE TREATMENT USING ANTI-TISSUE FACTOR ANTIBODIES” (Iconic Therapeutics LLC, priority 2020, published 2024).
# What was measured:
# Assay in all cases: Epitope binning, chimeric TF construct mapping (live cell staining assay)
# Type in all cases: binding
# [1] = target: T1, chimeric human-rat TF constructs expressed on HEK293 cells (Homo sapiens, UniProt P13726, D177Q/S174T); details: construct h140-145_r (2); human segment replaced by rat segment
# T1 construct: expressed in transfected cells; host or cells: HEK293
# Description: (§1) To establish binding of the anti-human TF antibodies to the various TF constructs, HEK293 cells were transfected with a DNA plasmid that co-expresses the TF construct and a green fluorescent protein marker. For a subset of the antibodies, an antibody titration (a 12-point 1:3 dilution series starting at 250 nM) was evaluated on select TF constructs (See international PCT application PCT/US2019/012427 and U.S. utility application Ser. No. 16/959,652, incorporated herein by reference in their entirety). […] Two days after transfection, cells were collected from the tissue culture plate, stained with 15 μg/ml of the indicated anti-TF antibody, washed, stained with anti-human IgG-Fc Alexa Fluor 647 polyclonal antibody, washed, and stained with the viability dye 4′,6-Diamidino-2-Phenylindole, Dihydrochloride. Upon acquisition of 80,000 live events on a flow cytometer, live cells marked with the fluorescent marker were analyzed for the degree of staining by the anti-TF antibody. […] As used herein, the term “live cell staining assay” refers to the antibody binding assay used in this example.
# (§2) When “Percentage antibody binding to TF construct relative to hTF” in Tables 51 and 52 was less than 50%, the antibody was considered a non-binder (0) in Tables 53 and 54.
# [2] = target: T2, chimeric human-rat TF constructs expressed on HEK293 cells (Homo sapiens, UniProt P13726, D177Q/I184G/K181N/N170G/R168K/S174T/T186I/W190R/Y188T); details: construct h133-158_r (9); human segment replaced by rat segment
# T2 construct: expressed in transfected cells; host or cells: HEK293
# Description: as §1, §2
# [3] = target: T3, chimeric human-rat TF constructs expressed on HEK293 cells (Homo sapiens, UniProt P13726, D177Q/E160K/E162S/F148Y/I184G/K181N/L140I/N156K/N170G/R163F/R168K/S147K/S174T/T144V/T186I/V151G/V155L/W190R/Y188T); details: construct h108-158_r (19); human segment replaced by rat segment
# T3 construct: expressed in transfected cells; host or cells: HEK293
# Description: as §1, §2
# [4] = target: T4, chimeric human-rat TF constructs expressed on HEK293 cells (Homo sapiens, UniProt P13726, P226F); details: construct h190-219_r (16); human segment replaced by rat segment
# T4 construct: expressed in transfected cells; host or cells: HEK293
# Description: as §1, §2
# [5] = target: T5, chimeric human-rat TF constructs expressed on HEK293 cells (Homo sapiens, UniProt P13726, A112W/A121H/D76N/DEL115-116/DUP123-123/E127T/E131K/E137D/E58Q/F108L/F82T/G113R/G75R/INS118HGKETLF/K100N/K47I/K73R/L104E/L125P/L136R/N139K/N50D/P130R/Q101W/Q64Y/S120T/S129A/S79Y/T133L/T72D/V62T/V65T/Y110V/Y126F/Y83G); details: construct h1-107_r (52); human segment replaced by rat segment
# T5 construct: expressed in transfected cells; host or cells: HEK293
# Description: as §1, §2
# [6] = test system: chimeric human-rat TF constructs expressed on HEK293 cells
# Description: as §1, §2
# [7] = target: T6, chimeric human-rat TF constructs expressed on HEK293 cells (Homo sapiens, UniProt P13726); details: construct hTF
# T6 construct: expressed in transfected cells; host or cells: HEK293
# Description: as §1, §2
# [8] = target: T7, chimeric human-rat TF constructs expressed on HEK293 cells (Homo sapiens, UniProt P13726, K181N)
# T7 construct: expressed in transfected cells; host or cells: HEK293
# Description: as §1, §2
# [9] = target: T8, chimeric human-rat TF constructs expressed on HEK293 cells (Homo sapiens, UniProt P13726, D76N/F108L/F82T/G75R/K100N/K73R/L104E/Q101W/S79Y/T72D/Y83G); details: construct h39-77_r (11); human segment replaced by rat segment
# T8 construct: expressed in transfected cells; host or cells: HEK293
# Description: as §1, §2
# [10] = target: T9, chimeric human-rat TF constructs expressed on HEK293 cells (Homo sapiens, UniProt P13726, D212E/E215V/N216S/S220F/V221A); details: construct h175-189_r (5); human segment replaced by rat segment
# T9 construct: expressed in transfected cells; host or cells: HEK293
# Description: as §1, §2
# [11] = target: T10, chimeric human-rat TF constructs expressed on HEK293 cells (Homo sapiens, UniProt P13726, E127T/E131K/E137D/L136R/N139K/P130R/S129A/T133L/Y126F); details: construct h94-107_r (9); human segment replaced by rat segment
# T10 construct: expressed in transfected cells; host or cells: HEK293
# Description: as §1, §2
# [12] = target: T11, chimeric human-rat TF constructs expressed on HEK293 cells (Homo sapiens, UniProt P13726, N170G/R168K); details: construct h133-139_r (2); human segment replaced by rat segment
# T11 construct: expressed in transfected cells; host or cells: HEK293
# Description: as §1, §2
# [13] = target: T12, chimeric human-rat TF constructs expressed on HEK293 cells (Homo sapiens, UniProt P13726, A200N/D212E/E215V/K197R/K201T/N203H/N216S/S192D/S195T/S220F/V221A); details: construct h159-189_r (11); human segment replaced by rat segment
# T12 construct: expressed in transfected cells; host or cells: HEK293
# Description: as §1, §2
# [14] = target: T13, chimeric human-rat TF constructs expressed on HEK293 cells (Homo sapiens, UniProt P13726, A112W/A121H/DEL115-116/DUP123-123/G113R/INS118HGKETLF/L125P/S120T/Y110V); details: construct h78-93_r (18); human segment replaced by rat segment
# T13 construct: expressed in transfected cells; host or cells: HEK293
# Description: as §1, §2
# [15] = target: T14, chimeric human-rat TF constructs expressed on HEK293 cells (Homo sapiens, UniProt P13726, N203H/T229K); details: construct hTF_N171H_T197K
# T14 construct: expressed in transfected cells; host or cells: HEK293
# Description: as §1, §2
# T7 sequence (P13726 33-251 K181N): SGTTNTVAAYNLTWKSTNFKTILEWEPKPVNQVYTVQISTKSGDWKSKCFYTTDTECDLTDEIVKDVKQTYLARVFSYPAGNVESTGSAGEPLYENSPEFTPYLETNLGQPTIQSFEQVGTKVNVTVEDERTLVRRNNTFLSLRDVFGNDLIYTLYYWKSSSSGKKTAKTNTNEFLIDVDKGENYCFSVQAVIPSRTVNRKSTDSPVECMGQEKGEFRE
# T6 sequence (P13726 33-251, change not shown): as the sequence (P13726 33-251 K181N) above, with N149K counted along it
# T13 sequence (P13726 with tags, fused parts or gaps with the stated changes): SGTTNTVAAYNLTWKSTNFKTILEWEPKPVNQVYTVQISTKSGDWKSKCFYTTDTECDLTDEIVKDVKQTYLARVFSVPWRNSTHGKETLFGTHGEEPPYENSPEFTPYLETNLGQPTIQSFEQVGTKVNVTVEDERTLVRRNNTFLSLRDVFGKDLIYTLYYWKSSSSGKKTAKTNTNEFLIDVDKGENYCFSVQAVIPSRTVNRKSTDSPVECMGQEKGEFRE
# T12 sequence (P13726 33-251 S192D/S195T/K197R/A200N/K201T/N203H/D212E/E215V/N216S/S220F/V221A): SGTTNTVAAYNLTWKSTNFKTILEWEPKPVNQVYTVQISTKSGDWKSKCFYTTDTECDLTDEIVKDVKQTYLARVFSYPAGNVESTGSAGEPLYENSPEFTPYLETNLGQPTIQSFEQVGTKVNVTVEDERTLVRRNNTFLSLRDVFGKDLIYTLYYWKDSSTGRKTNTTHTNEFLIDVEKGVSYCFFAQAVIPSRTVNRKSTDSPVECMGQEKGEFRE
# T4 sequence (P13726 with tags, fused parts or gaps P226F): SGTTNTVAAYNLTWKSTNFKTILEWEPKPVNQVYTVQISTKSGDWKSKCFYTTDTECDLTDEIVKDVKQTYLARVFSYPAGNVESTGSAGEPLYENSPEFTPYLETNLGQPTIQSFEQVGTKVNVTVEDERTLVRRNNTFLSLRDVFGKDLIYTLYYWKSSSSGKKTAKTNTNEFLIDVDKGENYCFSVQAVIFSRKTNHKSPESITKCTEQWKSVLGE
# T14 sequence (P13726 33-251 N203H/T229K): as the sequence (P13726 33-251 K181N) above, with N149K, N171H, T197K counted along it
# T3 sequence (P13726 33-251 with the stated changes): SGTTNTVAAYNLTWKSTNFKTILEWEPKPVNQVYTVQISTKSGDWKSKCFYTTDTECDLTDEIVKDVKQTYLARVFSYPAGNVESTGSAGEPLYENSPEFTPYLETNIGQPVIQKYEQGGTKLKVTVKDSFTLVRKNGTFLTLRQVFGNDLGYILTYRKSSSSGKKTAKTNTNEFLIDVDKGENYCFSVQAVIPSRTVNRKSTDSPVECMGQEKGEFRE
# T10 sequence (P13726 33-251 Y126F/E127T/S129A/P130R/E131K/T133L/L136R/E137D/N139K): as the sequence (P13726 33-251 K181N) above, with Y94F, E95T, S97A, P98R, E99K, T101L, L104R, E105D, N107K, N149K counted along it
# T9 sequence (P13726 33-251 D212E/E215V/N216S/S220F/V221A): as the sequence (P13726 33-251 S192D/S195T/K197R/A200N/K201T/N203H/D212E/E215V/N216S/S220F/V221A) above, with D160S, T163S, R165K, N168A, T169K, H171N counted along it
# T11 sequence (P13726 33-251 R168K/N170G): as the sequence (P13726 33-251 K181N) above, with R136K, N138G, N149K counted along it
# T8 sequence (P13726 33-251 T72D/K73R/G75R/D76N/S79Y/F82T/Y83G/K100N/Q101W/L104E/F108L): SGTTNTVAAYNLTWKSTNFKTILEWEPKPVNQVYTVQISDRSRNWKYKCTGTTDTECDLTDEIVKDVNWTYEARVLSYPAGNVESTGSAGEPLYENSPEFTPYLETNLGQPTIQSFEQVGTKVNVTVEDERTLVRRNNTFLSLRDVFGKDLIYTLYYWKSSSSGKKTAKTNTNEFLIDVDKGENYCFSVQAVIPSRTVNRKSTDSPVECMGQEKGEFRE
# T1 sequence (P13726 33-251 S174T/D177Q): as the sequence (P13726 33-251 K181N) above, with S142T, D145Q, N149K counted along it
# T5 sequence (P13726 with tags, fused parts or gaps with the stated changes): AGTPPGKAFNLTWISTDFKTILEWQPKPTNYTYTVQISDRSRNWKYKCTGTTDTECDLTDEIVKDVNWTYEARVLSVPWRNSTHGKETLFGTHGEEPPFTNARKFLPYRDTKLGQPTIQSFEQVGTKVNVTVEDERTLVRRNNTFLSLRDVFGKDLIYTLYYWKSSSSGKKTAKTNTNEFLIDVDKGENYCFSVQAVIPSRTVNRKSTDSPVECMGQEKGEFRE
# T2 sequence (P13726 33-251 R168K/N170G/S174T/D177Q/K181N/I184G/T186I/Y188T/W190R): as the sequence (P13726 33-251 K181N) above, with R136K, N138G, S142T, D145Q, I152G, T154I, Y156T, W158R counted along it
substance,measurement,setting,value
TF-011,Antibody binding to TF construct,[1],"1 (between 50% and 150%, the antibody was considered a binder (1))"
same,Antibody binding to TF construct,[2],"1 (between 50% and 150%, the antibody was considered a binder (1))"
same,Antibody binding to TF construct,[3],"1 (between 50% and 150%, the antibody was considered a binder (1))"
same,Antibody binding to TF construct,[4],"1 (between 50% and 150%, the antibody was considered a binder (1))"
same,Antibody binding to TF construct,[5],"0 (less than 50%, the antibody was considered a non-binder (0))"
same,Antibody binding to TF construct,"[6]; Table 53, construct rTF","0 (less than 50%, the antibody was considered a non-binder (0))"
same,Antibody binding to TF construct,"[6]; Table 54, construct rTF","0 (less than 50%, the antibody was considered a non-binder (0))"
same,Constructs not bound by antibody,[6]; chimeric human-rat TF constructs,"rTF, h1-107_r, h1-77_r, h39-77_r, h78-107_r, h78-107_r.v2, h94-107_r"
same,Antibody binding to TF construct,"[6]; construct h78-107_r (21), human segment replaced by rat segment","0 (less than 50%, the antibody was considered a non-binder (0))"
same,Antibody binding to TF construct,"[6]; construct h108-219_r (46), human segment replaced by rat segment","1 (between 50% and 150%, the antibody was considered a binder (1))"
same,Antibody binding to TF construct,"[6]; construct h159-219_r (27), human segment replaced by rat segment","1 (between 50% and 150%, the antibody was considered a binder (1))"
same,Antibody binding to TF construct,"[6]; construct r141-194_h (rat amino acid segment replaced by human segment, 20 amino acid changes)","0 (less than 50%, the antibody was considered a non-binder (0))"
same,Antibody binding to TF construct,[7]; Table 53,"1 (between 50% and 150%, the antibody was considered a binder (1))"
same,Antibody binding to TF construct,[7]; Table 54,"1 (between 50% and 150%, the antibody was considered a binder (1))"
same,Antibody binding to TF construct,"[8]; construct h146-151_r (1), human segment replaced by rat segment","1 (between 50% and 150%, the antibody was considered a binder (1))"
same,Antibody binding to TF construct,[8]; construct hTF_K149N,"1 (between 50% and 150%, the antibody was considered a binder (1))"
same,Antibody binding to TF construct,[9],"0 (less than 50%, the antibody was considered a non-binder (0))"
same,Antibody binding to TF construct,[10],"1 (between 50% and 150%, the antibody was considered a binder (1))"
same,Antibody binding to TF construct,[11],"0 (less than 50%, the antibody was considered a non-binder (0))"
same,Antibody binding to TF construct,[12],"1 (between 50% and 150%, the antibody was considered a binder (1))"
same,Antibody binding to TF construct,[13],"1 (between 50% and 150%, the antibody was considered a binder (1))"
same,Antibody binding to TF construct,[14],"1 (between 50% and 150%, the antibody was considered a binder (1))"
same,Antibody binding to TF construct,[15],"1 (between 50% and 150%, the antibody was considered a binder (1))"
